The values that follow come from patent US20090070890A1 (AFFITECH, published 2009).

In one experiment the target is T1, Recombinant ALCAM/Fc (UniProt Q13740 28-527, limits assumed).
T1 construct: also called CD166 antigen (Biacore)
T1 sequence (looked up): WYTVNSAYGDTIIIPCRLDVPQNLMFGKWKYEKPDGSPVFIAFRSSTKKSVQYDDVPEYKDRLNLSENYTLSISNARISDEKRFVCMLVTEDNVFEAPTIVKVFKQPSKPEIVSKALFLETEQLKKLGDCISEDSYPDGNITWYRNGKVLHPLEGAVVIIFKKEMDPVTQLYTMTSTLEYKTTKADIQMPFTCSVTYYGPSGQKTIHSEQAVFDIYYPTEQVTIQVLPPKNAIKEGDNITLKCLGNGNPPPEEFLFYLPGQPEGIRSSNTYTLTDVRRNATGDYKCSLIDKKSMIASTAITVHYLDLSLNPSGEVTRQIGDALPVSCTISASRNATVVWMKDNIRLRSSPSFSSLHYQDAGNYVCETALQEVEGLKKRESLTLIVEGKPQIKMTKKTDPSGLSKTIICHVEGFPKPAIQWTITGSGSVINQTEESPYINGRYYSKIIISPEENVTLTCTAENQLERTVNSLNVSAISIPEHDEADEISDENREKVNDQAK
Put plainly: Biacore T100; ALCAM/Fc (250 RU) amine-coupled to a CM5 chip; Fab at 3.9 to 125 nM; heterogeneous ligand model; Fab, not IgG; ALCAM/Fc on the chip. As to the method:
Binding affinity of EJ212/007-Cl2-5 Fab fragments to the CD166 antigen was measured by Biacore analysis. Recombinant ALCAM/Fc (250RU) was immobilized by amine coupling to a CM5 chip. A range of concentrations of the Fab antibody, from 3.9 to 125 nM (nanomolar), were run over the chip. The binding affinity, expressed as the Kd, was calculated using the Heterogen ligand binding model in the Biacore T100 Evaluation software.

The target of experiment [1] is T2, CD166 (ALCAM, activated leukocyte cell adhesion molecule), native, of human tumor cell lines (human, UniProt Q13740 28-583).
T2 construct: whole, on cells; The antigen was identified as CD166 by mass spectrometry of protein from PM-1 cells; also called CD166 antigen; MEMD
T2 sequence (looked up): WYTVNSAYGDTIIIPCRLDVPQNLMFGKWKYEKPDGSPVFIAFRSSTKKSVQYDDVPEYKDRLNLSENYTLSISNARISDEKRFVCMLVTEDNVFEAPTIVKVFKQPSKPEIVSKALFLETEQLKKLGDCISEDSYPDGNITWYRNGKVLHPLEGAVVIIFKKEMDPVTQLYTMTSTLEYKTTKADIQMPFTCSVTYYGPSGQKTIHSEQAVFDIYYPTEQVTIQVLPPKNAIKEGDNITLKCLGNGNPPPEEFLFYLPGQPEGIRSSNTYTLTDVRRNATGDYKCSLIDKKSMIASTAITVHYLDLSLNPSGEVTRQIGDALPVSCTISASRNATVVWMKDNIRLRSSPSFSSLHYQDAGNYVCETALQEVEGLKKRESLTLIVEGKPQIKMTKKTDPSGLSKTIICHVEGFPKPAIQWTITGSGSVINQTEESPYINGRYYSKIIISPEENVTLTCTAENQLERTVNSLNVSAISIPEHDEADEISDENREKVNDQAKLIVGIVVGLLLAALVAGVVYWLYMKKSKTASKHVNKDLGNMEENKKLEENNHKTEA
Nature of the experiment: photo-cross-linking of linker-coupled scFv to PM-1 cells, His-column and streptavidin-bead purification, blot detected with streptavidin-HRP. As to the method:
PM-1 cells (2×10⁶) were incubated with 25 μg of the above linker coupled scFv. After washing with PBS the cells were exposed to UV light at 302 nm. This was followed by lysis of the cells by NP-40 in the presence of DNAsel. After incubation on ice SDS was added and the samples were loaded on a His-column. The column was washed in the presence of NP-40 and SDS and the protein of interest was eluted with 5 mM DTT in the same detergents. The eluted sample was then mixed with streptavidin beads and the beads were washed in the presence of SDS. The SDS concentrations was increased and the beads were incubated at 90° C. for five minutes. The supernatant was then run on a 7% SDS-PAGE, transferred to a PVDF membrane and detected with streptavidin-HRP.

Experiment [2] deals with T3, human recombinant CD166-Fc (R&D systems), complete extracellular domain (human, UniProt Q13740 28-527).
T3 construct: extracellular domain; Bought reagent; also called recombinant CD166-Fc antigen; human CD166-Fc; not shown: Fc part of the commercial chimera, not described
T3 sequence (looked up): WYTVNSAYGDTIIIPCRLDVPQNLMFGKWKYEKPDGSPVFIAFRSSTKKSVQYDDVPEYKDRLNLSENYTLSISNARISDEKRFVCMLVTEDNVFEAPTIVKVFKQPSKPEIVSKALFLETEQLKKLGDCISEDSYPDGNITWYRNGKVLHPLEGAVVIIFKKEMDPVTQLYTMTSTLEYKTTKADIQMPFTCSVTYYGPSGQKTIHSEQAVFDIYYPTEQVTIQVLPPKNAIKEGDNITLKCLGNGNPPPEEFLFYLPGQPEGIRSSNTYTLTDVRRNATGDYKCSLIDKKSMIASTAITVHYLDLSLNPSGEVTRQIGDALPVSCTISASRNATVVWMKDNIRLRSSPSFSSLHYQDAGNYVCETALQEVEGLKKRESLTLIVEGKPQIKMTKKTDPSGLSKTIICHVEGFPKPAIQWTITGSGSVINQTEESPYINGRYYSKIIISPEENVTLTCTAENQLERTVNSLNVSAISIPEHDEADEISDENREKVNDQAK
Nature of the experiment: ELISA, plate coated with 10 ug/ml CD166-Fc, detection with anti-kappa-HRP and ABTS, absorbance at 405 nm. As to the method: Binding of the EJ212/007-Cl2-5 IgG to the CD166 antigen was tested in ELISA. An ELISA plate was coated overnight with 10 μg/ml of a commercially available recombinant CD166-Fc antigen (R&D systems), CD166 d1-5/Fc or CD166 d1-3/Fc. An IgG with irrelevant binding specificity was added to the ELISA as a negative control. After washing with PBS/0.05% Tween the plate was incubated for 1 hour with a dilution series of EJ212/007-Cl2-5 IgG ranging from 10 to 0.16 μg/ml. Detection of the bound IgG was done by incubation for 1 hour with 1 μg/ml anti-kappa-HRP and 15 minutes with the 1-step ABTS substrate (Pierce). The absorbance was measured at 405 nm.
(In an ELISA, binding on a coated surface is turned into a signal by an enzyme label.)

Experiment [3] concerns the target T2, CD166 (ALCAM, activated leukocyte cell …). Put plainly: western blot, non-reducing SDS-PAGE, probed with EJ212/007-Cl2-5 IgG and anti-human IgG-HRP. The source says: Membrane proteins were isolated from two EJ212/007-Cl2-5 antigen-positive cell lines (PM-1 and DU-145; determined by FACS analysis) and concentrated by ultra-centrifugation. The membranes were resuspended in detergent (CHAPS/DOC) which was then removed from the sample by using Detergent Removing Resin (Pierce) in column format. The purified membrane proteins before and after sample concentration, and the cytosolic fraction were subsequently analysed by SDS-PAGE/Western under non-reducing conditions. The blot was probed with the EJ212/007-Cl2-5 IgG and corresponding secondary anti-human IgG coupled to HRP in order to visualise the proteins by chemiluminescence.
(A western blot detects proteins with antibodies after separation by electrophoresis.)

Experiment [4] deals with T4, mouse recombinant CD166-Fc (R&D systems) (mouse, UniProt Q61490 28-527).
T4 construct: Bought reagent; also called mouse CD166-Fc; not shown: Fc part of the commercial chimera, not described
T4 sequence (looked up): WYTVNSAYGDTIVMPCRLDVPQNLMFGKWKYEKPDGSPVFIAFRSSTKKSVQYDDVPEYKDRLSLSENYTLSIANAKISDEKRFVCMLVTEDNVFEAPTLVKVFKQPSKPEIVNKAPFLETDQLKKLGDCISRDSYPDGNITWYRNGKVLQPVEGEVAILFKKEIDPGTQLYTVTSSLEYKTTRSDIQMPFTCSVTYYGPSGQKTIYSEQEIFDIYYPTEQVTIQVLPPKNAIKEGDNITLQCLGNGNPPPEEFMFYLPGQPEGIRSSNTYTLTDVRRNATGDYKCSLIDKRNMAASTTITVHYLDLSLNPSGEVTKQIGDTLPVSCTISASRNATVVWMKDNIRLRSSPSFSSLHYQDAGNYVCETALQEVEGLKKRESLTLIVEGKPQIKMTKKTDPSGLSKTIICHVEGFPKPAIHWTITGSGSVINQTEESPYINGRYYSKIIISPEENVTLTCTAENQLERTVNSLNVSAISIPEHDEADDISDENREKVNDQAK
Nature of the experiment: ELISA on coated mouse CD166-Fc.

B1: EJ212/007-Cl2-5 Fab (Fab, V domains shown)
VH: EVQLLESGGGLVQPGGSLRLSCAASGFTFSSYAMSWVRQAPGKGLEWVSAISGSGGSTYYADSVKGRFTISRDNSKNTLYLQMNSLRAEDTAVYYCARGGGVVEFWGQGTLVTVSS
VL: DIRMTQSPSFLSASVGDRVTITCRASQDISSYFAWYQQKPGKAPKLLIYAASTLRSGVPSRFSGSGSGTDFTLTISSLQPEDFATYYCQQSYSTPRITFGQGTRLEIK
notes: Fab format of EJ212/007-Cl2-5; The CH1 and CL of the Fab, and how it was made, are not described; also called EJ212/007-Cl2-5 Fab fragments; Fab antibody
Usually Kd stands for the free concentration of one partner at which half of the binding sites on the other are occupied at equilibrium, for simple one-to-one binding. B1: the Kd with Recombinant ALCAM/Fc was found to be 29 nM.

B2: scFv EJ212/007-Cl2-5 T68C (scFv, name in Kabat numbering)
scFv: EVQLLESGGGLVQPGGSLRLSCAASGFTFSSYAMSWVRQAPGKGLEWVSAISGSGGSTYYADSVKGRFCISRDNSKNTLYLQMNSLRAEDTAVYYCARGGGVVEFWGQGTLVTVSSKLSGSASAPKLEEGEFSEARVDIRMTQSPSFLSASVGDRVTITCRASQDISSYFAWYQQKPGKAPKLLIYAASTLRSGVPSRFSGSGSGTDFTLTISSLQPEDFATYYCQQSYSTPRITFGQGTRLEIK
modifications: Mts-Atf-LC-Biotin linker (Pierce 33083) coupled to the introduced Cys 68 (Kabat)
notes: Expressed in E. coli TG1; also called EJ212/007-Cl2-5 scFv (His-tagged) with a cysteine introduced by point mutation at position 68 (Kabat, RFCIS); linker coupled scFv
For B2, the binding result in experiment [1] is listed as “binds”.

B3: EJ212/007-Cl2-5 IgG (antibody)
heavy: not shown
light: DIRMTQSPSFLSASVGDRVTITCRASQDISSYFAWYQQKPGKAPKLLIYAASTLRSGVPSRFSGSGSGTDFTLTISSLQPEDFATYYCQQSYSTPRITFGQGTRLEIKRTVAAPSVFIFPPSDEQLKSGTASVVCLLNNFYPREAKVQWKVDNALQSGNSQESVTEQDSKDSTYSLSSTLTLSKADYEKHKVYACEVTHQGLSSPVTKSFNRGEC
notes: Human IgG1/kappa; also called IgG form of EJ212/007-Cl2-5; EJ212/007-Cl2-5 IgG antibody
Turning to B3, the binding result in experiment [2], in experiment [3] and in experiment [4] was “binds” in each case.
